Drawing on paper PMC5743061, this text covers release of CHC from HeLa CCVs into the supernatant, S/(S+P) by immunoblot, with uncoating complex (Hsc70 1.3 μM + GST-auxilin(401–910) 0.13 μM) plus ATP 0.5 mM, 10 min, 37 °C and stoichiometry N for three molecules.

Test [1] addresses CHC17 clathrin heavy chain (human (endogenous in HeLa)) (UniProt Q00610).
Test [2] has as its target CHC22 clathrin heavy chain (human (endogenous in HeLa)) (UniProt P53675).
The target of another test is CHC22Δx9 (human) (UniProt P53675). Kind of test: deep-etch electron microscopy; purified CHC isoforms adsorbed on mica flakes, quick-frozen, freeze-fractured, deep-etched, platinum-replicated; CHC22Δx9 released in high Tris buffer pH 7.0, CHC17 released in HEPES buffer pH 7.0.
Test [3] concerns the target T1, CHC17 clathrin heavy chain (human (endogenous in HeLa)), Q00610.
T1 chain: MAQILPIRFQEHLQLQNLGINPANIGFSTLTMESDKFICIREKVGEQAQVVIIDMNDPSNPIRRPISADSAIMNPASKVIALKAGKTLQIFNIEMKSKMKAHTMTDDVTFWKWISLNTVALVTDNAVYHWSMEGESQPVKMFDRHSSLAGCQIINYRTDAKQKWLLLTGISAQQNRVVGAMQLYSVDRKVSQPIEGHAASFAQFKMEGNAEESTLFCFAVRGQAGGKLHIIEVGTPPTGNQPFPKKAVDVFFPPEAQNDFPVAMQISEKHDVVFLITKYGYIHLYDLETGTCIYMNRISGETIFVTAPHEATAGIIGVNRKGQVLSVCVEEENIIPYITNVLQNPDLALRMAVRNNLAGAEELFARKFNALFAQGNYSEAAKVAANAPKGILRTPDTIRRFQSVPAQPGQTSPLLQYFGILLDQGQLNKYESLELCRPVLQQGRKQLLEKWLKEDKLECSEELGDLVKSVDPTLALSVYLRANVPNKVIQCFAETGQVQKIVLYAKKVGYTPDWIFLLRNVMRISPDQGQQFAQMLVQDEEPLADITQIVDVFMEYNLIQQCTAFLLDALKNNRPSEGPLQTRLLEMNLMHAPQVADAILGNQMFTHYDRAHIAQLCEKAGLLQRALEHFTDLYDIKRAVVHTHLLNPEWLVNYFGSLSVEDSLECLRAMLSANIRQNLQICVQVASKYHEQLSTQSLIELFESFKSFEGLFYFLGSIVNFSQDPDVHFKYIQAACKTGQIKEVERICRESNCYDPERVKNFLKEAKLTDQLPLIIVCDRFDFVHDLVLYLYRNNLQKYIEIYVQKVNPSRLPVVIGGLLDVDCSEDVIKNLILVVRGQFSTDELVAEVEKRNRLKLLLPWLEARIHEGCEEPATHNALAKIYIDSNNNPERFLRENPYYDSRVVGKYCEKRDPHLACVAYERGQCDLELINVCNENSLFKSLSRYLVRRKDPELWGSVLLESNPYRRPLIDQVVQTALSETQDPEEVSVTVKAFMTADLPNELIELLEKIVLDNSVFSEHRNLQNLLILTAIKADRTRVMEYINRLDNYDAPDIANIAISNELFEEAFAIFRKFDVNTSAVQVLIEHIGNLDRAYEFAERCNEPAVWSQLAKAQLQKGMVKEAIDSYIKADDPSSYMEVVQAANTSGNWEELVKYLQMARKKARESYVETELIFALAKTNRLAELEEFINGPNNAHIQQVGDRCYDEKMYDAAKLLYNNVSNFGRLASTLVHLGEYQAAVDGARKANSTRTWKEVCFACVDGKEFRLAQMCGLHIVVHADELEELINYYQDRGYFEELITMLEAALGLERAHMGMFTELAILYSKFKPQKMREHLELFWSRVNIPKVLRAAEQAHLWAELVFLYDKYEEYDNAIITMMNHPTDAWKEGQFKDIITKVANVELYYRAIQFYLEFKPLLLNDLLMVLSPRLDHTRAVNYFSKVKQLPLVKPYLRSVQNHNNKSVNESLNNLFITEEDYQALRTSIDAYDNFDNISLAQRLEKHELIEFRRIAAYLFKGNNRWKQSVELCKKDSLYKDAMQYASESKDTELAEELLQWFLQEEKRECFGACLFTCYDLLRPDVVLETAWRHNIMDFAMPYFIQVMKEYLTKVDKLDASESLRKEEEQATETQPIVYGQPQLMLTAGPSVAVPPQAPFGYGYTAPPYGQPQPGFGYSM
The description is as above. The following applies: remark: other sources report otherwise.

Chain of UniProt P53675 (P53675 whole entry, canonical isoform): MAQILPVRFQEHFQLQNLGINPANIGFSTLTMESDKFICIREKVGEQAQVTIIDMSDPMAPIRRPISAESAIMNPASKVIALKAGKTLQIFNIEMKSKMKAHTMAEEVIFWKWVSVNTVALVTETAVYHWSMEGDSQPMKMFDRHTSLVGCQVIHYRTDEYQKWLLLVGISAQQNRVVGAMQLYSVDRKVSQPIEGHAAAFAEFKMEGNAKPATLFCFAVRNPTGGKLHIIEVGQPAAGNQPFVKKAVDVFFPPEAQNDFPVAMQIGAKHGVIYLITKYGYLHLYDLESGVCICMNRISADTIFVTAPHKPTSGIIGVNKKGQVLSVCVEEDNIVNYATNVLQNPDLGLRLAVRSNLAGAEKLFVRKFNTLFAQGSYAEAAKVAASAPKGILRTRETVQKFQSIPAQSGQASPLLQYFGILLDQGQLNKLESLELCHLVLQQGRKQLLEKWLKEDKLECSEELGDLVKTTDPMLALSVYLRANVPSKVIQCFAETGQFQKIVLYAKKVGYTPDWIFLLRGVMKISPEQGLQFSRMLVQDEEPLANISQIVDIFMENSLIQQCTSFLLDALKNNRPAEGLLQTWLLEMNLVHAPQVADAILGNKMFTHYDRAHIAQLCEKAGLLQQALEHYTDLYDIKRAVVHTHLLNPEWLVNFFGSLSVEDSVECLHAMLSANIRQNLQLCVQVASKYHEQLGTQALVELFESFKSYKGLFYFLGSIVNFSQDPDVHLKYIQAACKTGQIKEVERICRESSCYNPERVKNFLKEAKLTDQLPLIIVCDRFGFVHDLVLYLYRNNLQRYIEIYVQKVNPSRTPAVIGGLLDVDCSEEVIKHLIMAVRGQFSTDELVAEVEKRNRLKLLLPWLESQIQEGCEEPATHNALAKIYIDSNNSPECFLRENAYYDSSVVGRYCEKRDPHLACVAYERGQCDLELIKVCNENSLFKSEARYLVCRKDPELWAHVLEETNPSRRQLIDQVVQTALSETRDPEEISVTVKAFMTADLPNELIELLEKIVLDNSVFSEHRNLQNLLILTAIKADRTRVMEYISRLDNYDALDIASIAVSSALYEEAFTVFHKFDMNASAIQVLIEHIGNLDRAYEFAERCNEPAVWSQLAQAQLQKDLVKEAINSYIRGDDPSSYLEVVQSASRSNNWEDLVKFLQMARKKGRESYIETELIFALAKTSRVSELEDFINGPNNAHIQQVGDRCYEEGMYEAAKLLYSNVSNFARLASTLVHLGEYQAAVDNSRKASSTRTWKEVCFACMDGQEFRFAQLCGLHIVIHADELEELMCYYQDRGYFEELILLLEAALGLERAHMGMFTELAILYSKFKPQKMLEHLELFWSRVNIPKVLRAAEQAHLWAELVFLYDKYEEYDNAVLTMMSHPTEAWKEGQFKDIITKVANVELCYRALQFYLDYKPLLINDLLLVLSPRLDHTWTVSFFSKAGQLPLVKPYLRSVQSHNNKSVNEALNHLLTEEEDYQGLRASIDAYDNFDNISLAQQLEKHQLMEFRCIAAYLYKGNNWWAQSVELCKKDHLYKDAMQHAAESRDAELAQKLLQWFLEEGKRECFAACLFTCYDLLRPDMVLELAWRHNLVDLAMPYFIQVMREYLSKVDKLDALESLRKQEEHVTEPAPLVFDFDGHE

Consider “70-kDa heat-shock cognate protein (Hsc70) (from UniProt P63018 1-646) (enzyme)”, for which the release of CHC from HeLa CCVs into the supernatant, S/(S+P) by immunoblot, with uncoating complex (Hsc70 1.3 μM + GST-auxilin(401–910) 0.13 μM) plus ATP 0.5 mM, 10 min, 37 °C is over 50% in test [1] and 16% in test [2].

On to “CHC22Δx9 (from UniProt P53675 1-1640) (natural protein)”, for which the stoichiometry N with CHC22Δx9 (human) came out at 3.

B1: CHC17 clathrin heavy chain, Q00610 1-1675 (natural protein)
chain: MAQILPIRFQEHLQLQNLGINPANIGFSTLTMESDKFICIREKVGEQAQVVIIDMNDPSNPIRRPISADSAIMNPASKVIALKAGKTLQIFNIEMKSKMKAHTMTDDVTFWKWISLNTVALVTDNAVYHWSMEGESQPVKMFDRHSSLAGCQIINYRTDAKQKWLLLTGISAQQNRVVGAMQLYSVDRKVSQPIEGHAASFAQFKMEGNAEESTLFCFAVRGQAGGKLHIIEVGTPPTGNQPFPKKAVDVFFPPEAQNDFPVAMQISEKHDVVFLITKYGYIHLYDLETGTCIYMNRISGETIFVTAPHEATAGIIGVNRKGQVLSVCVEEENIIPYITNVLQNPDLALRMAVRNNLAGAEELFARKFNALFAQGNYSEAAKVAANAPKGILRTPDTIRRFQSVPAQPGQTSPLLQYFGILLDQGQLNKYESLELCRPVLQQGRKQLLEKWLKEDKLECSEELGDLVKSVDPTLALSVYLRANVPNKVIQCFAETGQVQKIVLYAKKVGYTPDWIFLLRNVMRISPDQGQQFAQMLVQDEEPLADITQIVDVFMEYNLIQQCTAFLLDALKNNRPSEGPLQTRLLEMNLMHAPQVADAILGNQMFTHYDRAHIAQLCEKAGLLQRALEHFTDLYDIKRAVVHTHLLNPEWLVNYFGSLSVEDSLECLRAMLSANIRQNLQICVQVASKYHEQLSTQSLIELFESFKSFEGLFYFLGSIVNFSQDPDVHFKYIQAACKTGQIKEVERICRESNCYDPERVKNFLKEAKLTDQLPLIIVCDRFDFVHDLVLYLYRNNLQKYIEIYVQKVNPSRLPVVIGGLLDVDCSEDVIKNLILVVRGQFSTDELVAEVEKRNRLKLLLPWLEARIHEGCEEPATHNALAKIYIDSNNNPERFLRENPYYDSRVVGKYCEKRDPHLACVAYERGQCDLELINVCNENSLFKSLSRYLVRRKDPELWGSVLLESNPYRRPLIDQVVQTALSETQDPEEVSVTVKAFMTADLPNELIELLEKIVLDNSVFSEHRNLQNLLILTAIKADRTRVMEYINRLDNYDAPDIANIAISNELFEEAFAIFRKFDVNTSAVQVLIEHIGNLDRAYEFAERCNEPAVWSQLAKAQLQKGMVKEAIDSYIKADDPSSYMEVVQAANTSGNWEELVKYLQMARKKARESYVETELIFALAKTNRLAELEEFINGPNNAHIQQVGDRCYDEKMYDAAKLLYNNVSNFGRLASTLVHLGEYQAAVDGARKANSTRTWKEVCFACVDGKEFRLAQMCGLHIVVHADELEELINYYQDRGYFEELITMLEAALGLERAHMGMFTELAILYSKFKPQKMREHLELFWSRVNIPKVLRAAEQAHLWAELVFLYDKYEEYDNAIITMMNHPTDAWKEGQFKDIITKVANVELYYRAIQFYLEFKPLLLNDLLMVLSPRLDHTRAVNYFSKVKQLPLVKPYLRSVQNHNNKSVNESLNNLFITEEDYQALRTSIDAYDNFDNISLAQRLEKHELIEFRRIAAYLFKGNNRWKQSVELCKKDSLYKDAMQYASESKDTELAEELLQWFLQEEKRECFGACLFTCYDLLRPDVVLETAWRHNIMDFAMPYFIQVMKEYLTKVDKLDASESLRKEEEQATETQPIVYGQPQLMLTAGPSVAVPPQAPFGYGYTAPPYGQPQPGFGYSM
Consider B1, for which the stoichiometry N in test [3] was 3.

In general, stoichiometry N refers to a count of units in the complex or per binding partner.
